According to PMC10978839:

Assays:
[1] = confocal colocalisation with calreticulin/GM130; membrane trafficking; details: glycan lost; control: SEMA7A-WT
[2] = CHX chase immunoblot, turnover rate; details: glycan lost; control: untreated (endogenous SEMA7A)
[3] = non-reducing vs reducing western blot; details: glycan lost; control: SEMA7A-WT
[4] = immunofluorescence intensity, HN6 and HN30; details: glycan lost; control: untreated and O-Glycosidase-treated cells

| Protein | localisation_or_trafficking [1] | further results |
| --- | --- | --- |
| SEMA7A: N258Q (protein) parent chain: MTPPPPGRAAPSAPRARVPGPPARLGLPLRLRLLLLLWAAAASAQGHLRSGPRIFAVWKGHVGQDRVDFGQTEPHTVLFHEPGSSSVWVGGRGKVYLFDFPEGKNASVRTVNIGSTKGSCLDKRDCENYITLLERRSEGLLACGTNARHPSCWNLVNGTVVPLGEMRGYAPFSPDENSLVLFEGDEVYSTIRKQEYNGKIPRFRRIRGESELYTSDTVMQNPQFIKATIVHQDQAYDDKIYYFFREDNPDKNPEAPLNVSRVAQLCRGDQGGESSLSVSKWNTFLKAMLVCSDAATNKNFNRLQDVFLLPDPSGQWRDTRVYGVFSNPWNYSAVCVYSLGDIDKVFRTSSLKGYHSSLPNPRPGKCLPDQQPIPTETFQVADRHPEVAQRVEPMGPLKTPLFHSKYHYQKVAVHRMQASHGETFHVLYLTTDRGTIHKVVEPGEQEHSFAFNIMEIQPFRRAAAIQTMSLDAERRKLYVSSQWEVSQVPLDLCEVYGGGCHGCLMSRDPYCGWDQGRCISIYSSERSVLQSINPAEPHKECPNPKPDKAPLQKVSLAPNSRYYLSCPMESRHATYSWRHKENVEQSCEPGHQSPNCILFIENLTAQQYGHYFCEAQEGSYFREAQHWQLLPEDGIMAEHLLGHACALAASLWLGVLPTLTLGLLVH | no change |  |
| SEMA7A: N602Q (protein) parent chain: MTPPPPGRAAPSAPRARVPGPPARLGLPLRLRLLLLLWAAAASAQGHLRSGPRIFAVWKGHVGQDRVDFGQTEPHTVLFHEPGSSSVWVGGRGKVYLFDFPEGKNASVRTVNIGSTKGSCLDKRDCENYITLLERRSEGLLACGTNARHPSCWNLVNGTVVPLGEMRGYAPFSPDENSLVLFEGDEVYSTIRKQEYNGKIPRFRRIRGESELYTSDTVMQNPQFIKATIVHQDQAYDDKIYYFFREDNPDKNPEAPLNVSRVAQLCRGDQGGESSLSVSKWNTFLKAMLVCSDAATNKNFNRLQDVFLLPDPSGQWRDTRVYGVFSNPWNYSAVCVYSLGDIDKVFRTSSLKGYHSSLPNPRPGKCLPDQQPIPTETFQVADRHPEVAQRVEPMGPLKTPLFHSKYHYQKVAVHRMQASHGETFHVLYLTTDRGTIHKVVEPGEQEHSFAFNIMEIQPFRRAAAIQTMSLDAERRKLYVSSQWEVSQVPLDLCEVYGGGCHGCLMSRDPYCGWDQGRCISIYSSERSVLQSINPAEPHKECPNPKPDKAPLQKVSLAPNSRYYLSCPMESRHATYSWRHKENVEQSCEPGHQSPNCILFIENLTAQQYGHYFCEAQEGSYFREAQHWQLLPEDGIMAEHLLGHACALAASLWLGVLPTLTLGLLVH | no change |  |
| SEMA7A: tunicamycin (protein) parent chain: MTPPPPGRAAPSAPRARVPGPPARLGLPLRLRLLLLLWAAAASAQGHLRSGPRIFAVWKGHVGQDRVDFGQTEPHTVLFHEPGSSSVWVGGRGKVYLFDFPEGKNASVRTVNIGSTKGSCLDKRDCENYITLLERRSEGLLACGTNARHPSCWNLVNGTVVPLGEMRGYAPFSPDENSLVLFEGDEVYSTIRKQEYNGKIPRFRRIRGESELYTSDTVMQNPQFIKATIVHQDQAYDDKIYYFFREDNPDKNPEAPLNVSRVAQLCRGDQGGESSLSVSKWNTFLKAMLVCSDAATNKNFNRLQDVFLLPDPSGQWRDTRVYGVFSNPWNYSAVCVYSLGDIDKVFRTSSLKGYHSSLPNPRPGKCLPDQQPIPTETFQVADRHPEVAQRVEPMGPLKTPLFHSKYHYQKVAVHRMQASHGETFHVLYLTTDRGTIHKVVEPGEQEHSFAFNIMEIQPFRRAAAIQTMSLDAERRKLYVSSQWEVSQVPLDLCEVYGGGCHGCLMSRDPYCGWDQGRCISIYSSERSVLQSINPAEPHKECPNPKPDKAPLQKVSLAPNSRYYLSCPMESRHATYSWRHKENVEQSCEPGHQSPNCILFIENLTAQQYGHYFCEAQEGSYFREAQHWQLLPEDGIMAEHLLGHACALAASLWLGVLPTLTLGLLVH |  | degradation_or_half_life [2]: increases |
| SEMA7A: N157Q (protein) parent chain: MTPPPPGRAAPSAPRARVPGPPARLGLPLRLRLLLLLWAAAASAQGHLRSGPRIFAVWKGHVGQDRVDFGQTEPHTVLFHEPGSSSVWVGGRGKVYLFDFPEGKNASVRTVNIGSTKGSCLDKRDCENYITLLERRSEGLLACGTNARHPSCWNLVNGTVVPLGEMRGYAPFSPDENSLVLFEGDEVYSTIRKQEYNGKIPRFRRIRGESELYTSDTVMQNPQFIKATIVHQDQAYDDKIYYFFREDNPDKNPEAPLNVSRVAQLCRGDQGGESSLSVSKWNTFLKAMLVCSDAATNKNFNRLQDVFLLPDPSGQWRDTRVYGVFSNPWNYSAVCVYSLGDIDKVFRTSSLKGYHSSLPNPRPGKCLPDQQPIPTETFQVADRHPEVAQRVEPMGPLKTPLFHSKYHYQKVAVHRMQASHGETFHVLYLTTDRGTIHKVVEPGEQEHSFAFNIMEIQPFRRAAAIQTMSLDAERRKLYVSSQWEVSQVPLDLCEVYGGGCHGCLMSRDPYCGWDQGRCISIYSSERSVLQSINPAEPHKECPNPKPDKAPLQKVSLAPNSRYYLSCPMESRHATYSWRHKENVEQSCEPGHQSPNCILFIENLTAQQYGHYFCEAQEGSYFREAQHWQLLPEDGIMAEHLLGHACALAASLWLGVLPTLTLGLLVH | no change |  |
| SEMA7A: N330Q (protein) parent chain: MTPPPPGRAAPSAPRARVPGPPARLGLPLRLRLLLLLWAAAASAQGHLRSGPRIFAVWKGHVGQDRVDFGQTEPHTVLFHEPGSSSVWVGGRGKVYLFDFPEGKNASVRTVNIGSTKGSCLDKRDCENYITLLERRSEGLLACGTNARHPSCWNLVNGTVVPLGEMRGYAPFSPDENSLVLFEGDEVYSTIRKQEYNGKIPRFRRIRGESELYTSDTVMQNPQFIKATIVHQDQAYDDKIYYFFREDNPDKNPEAPLNVSRVAQLCRGDQGGESSLSVSKWNTFLKAMLVCSDAATNKNFNRLQDVFLLPDPSGQWRDTRVYGVFSNPWNYSAVCVYSLGDIDKVFRTSSLKGYHSSLPNPRPGKCLPDQQPIPTETFQVADRHPEVAQRVEPMGPLKTPLFHSKYHYQKVAVHRMQASHGETFHVLYLTTDRGTIHKVVEPGEQEHSFAFNIMEIQPFRRAAAIQTMSLDAERRKLYVSSQWEVSQVPLDLCEVYGGGCHGCLMSRDPYCGWDQGRCISIYSSERSVLQSINPAEPHKECPNPKPDKAPLQKVSLAPNSRYYLSCPMESRHATYSWRHKENVEQSCEPGHQSPNCILFIENLTAQQYGHYFCEAQEGSYFREAQHWQLLPEDGIMAEHLLGHACALAASLWLGVLPTLTLGLLVH | no change |  |
| SEMA7A: 3NQ (protein) parent chain: MTPPPPGRAAPSAPRARVPGPPARLGLPLRLRLLLLLWAAAASAQGHLRSGPRIFAVWKGHVGQDRVDFGQTEPHTVLFHEPGSSSVWVGGRGKVYLFDFPEGKNASVRTVNIGSTKGSCLDKRDCENYITLLERRSEGLLACGTNARHPSCWNLVNGTVVPLGEMRGYAPFSPDENSLVLFEGDEVYSTIRKQEYNGKIPRFRRIRGESELYTSDTVMQNPQFIKATIVHQDQAYDDKIYYFFREDNPDKNPEAPLNVSRVAQLCRGDQGGESSLSVSKWNTFLKAMLVCSDAATNKNFNRLQDVFLLPDPSGQWRDTRVYGVFSNPWNYSAVCVYSLGDIDKVFRTSSLKGYHSSLPNPRPGKCLPDQQPIPTETFQVADRHPEVAQRVEPMGPLKTPLFHSKYHYQKVAVHRMQASHGETFHVLYLTTDRGTIHKVVEPGEQEHSFAFNIMEIQPFRRAAAIQTMSLDAERRKLYVSSQWEVSQVPLDLCEVYGGGCHGCLMSRDPYCGWDQGRCISIYSSERSVLQSINPAEPHKECPNPKPDKAPLQKVSLAPNSRYYLSCPMESRHATYSWRHKENVEQSCEPGHQSPNCILFIENLTAQQYGHYFCEAQEGSYFREAQHWQLLPEDGIMAEHLLGHACALAASLWLGVLPTLTLGLLVH |  | oligomerisation [3]: no change |
| SEMA7A: N105Q (protein) parent chain: MTPPPPGRAAPSAPRARVPGPPARLGLPLRLRLLLLLWAAAASAQGHLRSGPRIFAVWKGHVGQDRVDFGQTEPHTVLFHEPGSSSVWVGGRGKVYLFDFPEGKNASVRTVNIGSTKGSCLDKRDCENYITLLERRSEGLLACGTNARHPSCWNLVNGTVVPLGEMRGYAPFSPDENSLVLFEGDEVYSTIRKQEYNGKIPRFRRIRGESELYTSDTVMQNPQFIKATIVHQDQAYDDKIYYFFREDNPDKNPEAPLNVSRVAQLCRGDQGGESSLSVSKWNTFLKAMLVCSDAATNKNFNRLQDVFLLPDPSGQWRDTRVYGVFSNPWNYSAVCVYSLGDIDKVFRTSSLKGYHSSLPNPRPGKCLPDQQPIPTETFQVADRHPEVAQRVEPMGPLKTPLFHSKYHYQKVAVHRMQASHGETFHVLYLTTDRGTIHKVVEPGEQEHSFAFNIMEIQPFRRAAAIQTMSLDAERRKLYVSSQWEVSQVPLDLCEVYGGGCHGCLMSRDPYCGWDQGRCISIYSSERSVLQSINPAEPHKECPNPKPDKAPLQKVSLAPNSRYYLSCPMESRHATYSWRHKENVEQSCEPGHQSPNCILFIENLTAQQYGHYFCEAQEGSYFREAQHWQLLPEDGIMAEHLLGHACALAASLWLGVLPTLTLGLLVH | no change |  |
| SEMA7A: PNGase F (protein) parent chain: MTPPPPGRAAPSAPRARVPGPPARLGLPLRLRLLLLLWAAAASAQGHLRSGPRIFAVWKGHVGQDRVDFGQTEPHTVLFHEPGSSSVWVGGRGKVYLFDFPEGKNASVRTVNIGSTKGSCLDKRDCENYITLLERRSEGLLACGTNARHPSCWNLVNGTVVPLGEMRGYAPFSPDENSLVLFEGDEVYSTIRKQEYNGKIPRFRRIRGESELYTSDTVMQNPQFIKATIVHQDQAYDDKIYYFFREDNPDKNPEAPLNVSRVAQLCRGDQGGESSLSVSKWNTFLKAMLVCSDAATNKNFNRLQDVFLLPDPSGQWRDTRVYGVFSNPWNYSAVCVYSLGDIDKVFRTSSLKGYHSSLPNPRPGKCLPDQQPIPTETFQVADRHPEVAQRVEPMGPLKTPLFHSKYHYQKVAVHRMQASHGETFHVLYLTTDRGTIHKVVEPGEQEHSFAFNIMEIQPFRRAAAIQTMSLDAERRKLYVSSQWEVSQVPLDLCEVYGGGCHGCLMSRDPYCGWDQGRCISIYSSERSVLQSINPAEPHKECPNPKPDKAPLQKVSLAPNSRYYLSCPMESRHATYSWRHKENVEQSCEPGHQSPNCILFIENLTAQQYGHYFCEAQEGSYFREAQHWQLLPEDGIMAEHLLGHACALAASLWLGVLPTLTLGLLVH |  | other: immunofluorescence detection by antibody [4]: increases |
